{"source": "the supplement of paper PMC10567573", "parents": {"B1": {"name": "RAB22A (parent)", "chain": "FVEDSFDPNINPTIGASFMTKTVQ"}}, "data": [{"variants_of": "B1", "assay": "protein stability index of a GFP-peptide fusion (GPS, HEK-293T) (PSI 1-6); higher = more stable", "details": "c terminus: a fixed tail appended", "values": [{"variant": "FVEDSFDPNQNPTIGASFMTKTVQ", "note": "[I10Q]", "protein stability index": 2.81}, {"variant": "FVEDSFDPNANPTIGASFMTKTVQ", "note": "[I10A]", "protein stability index": 2.48}, {"variant": "FVEDSFDPNCNPTIGASFMTKTVQ", "note": "[I10C]", "protein stability index": 2.14}, {"variant": "FVEDSFDPNMNPTIGASFMTKTVQ", "note": "[I10M]", "protein stability index": 1.99}, {"variant": "FVEDSFDPNKNPTIGASFMTKTVQ", "note": "[I10K]", "protein stability index": 2.5}, {"variant": "FVEDSFDPNFNPTIGASFMTKTVQ", "note": "[I10F]", "protein stability index": 2.2}, {"variant": "FVEDSFDPNENPTIGASFMTKTVQ", "note": "[I10E]", "protein stability index": 3.02}, {"variant": "FVEDSFDPNRNPTIGASFMTKTVQ", "note": "[I10R]", "protein stability index": 2.1}, {"variant": "FVEDSFDPNPNPTIGASFMTKTVQ", "note": "[I10P]", "protein stability index": 2.57}, {"variant": "FVEDSFDPNNNPTIGASFMTKTVQ", "note": "[I10N]", "protein stability index": 2.73}, {"variant": "FVEDSFDPNHNPTIGASFMTKTVQ", "note": "[I10H]", "protein stability index": 2.48}, {"variant": "FVEDSFDPNGNPTIGASFMTKTVQ", "note": "[I10G]", "protein stability index": 2.3}, {"variant": "FVEDSFDPNDNPTIGASFMTKTVQ", "note": "[I10D]", "protein stability index": 2.93}, {"variant": "FVEDSFDPNLNPTIGASFMTKTVQ", "note": "[I10L]", "protein stability index": 2.14}, {"variant": "FVEDSFDDNINPTIGASFMTKTVQ", "note": "[P8D]", "protein stability index": 2.76}, {"variant": "FVEDSFDININPTIGASFMTKTVQ", "note": "[P8I]", "protein stability index": 1.67}, {"variant": "FVEDSFDTNINPTIGASFMTKTVQ", "note": "[P8T]", "protein stability index": 2.39}, {"variant": "FVEDSFDVNINPTIGASFMTKTVQ", "note": "[P8V]", "protein stability index": 2.27}, {"variant": "FVEDSFDRNINPTIGASFMTKTVQ", "note": "[P8R]", "protein stability index": 2.63}, {"variant": "FVEDSFDENINPTIGASFMTKTVQ", "note": "[P8E]", "protein stability index": 2.7}, {"variant": "FVEDSFDLNINPTIGASFMTKTVQ", "note": "[P8L]", "protein stability index": 2.1}, {"variant": "FVEDSFDQNINPTIGASFMTKTVQ", "note": "[P8Q]", "protein stability index": 2.26}, {"variant": "FVEDSFDHNINPTIGASFMTKTVQ", "note": "[P8H]", "protein stability index": 2.1}, {"variant": "FVEDSFDYNINPTIGASFMTKTVQ", "note": "[P8Y]", "protein stability index": 1.85}, {"variant": "FVEDSFDKNINPTIGASFMTKTVQ", "note": "[P8K]", "protein stability index": 2.13}, {"variant": "FVEDSFDSNINPTIGASFMTKTVQ", "note": "[P8S]", "protein stability index": 2.17}, {"variant": "FVEDSFDNNINPTIGASFMTKTVQ", "note": "[P8N]", "protein stability index": 2.35}, {"variant": "FVEDSFDFNINPTIGASFMTKTVQ", "note": "[P8F]", "protein stability index": 2.94}, {"variant": "FVEDSFDANINPTIGASFMTKTVQ", "note": "[P8A]", "protein stability index": 2.33}, {"variant": "FVEDSFDCNINPTIGASFMTKTVQ", "note": "[P8C]", "protein stability index": 2.02}, {"variant": "FVEDSFDGNINPTIGASFMTKTVQ", "note": "[P8G]", "protein stability index": 2.52}, {"variant": "FVEDSFDWNINPTIGASFMTKTVQ", "note": "[P8W]", "protein stability index": 2.65}, {"variant": "FVEDSFDMNINPTIGASFMTKTVQ", "note": "[P8M]", "protein stability index": 2.06}, {"variant": "FVEDSFDPLINPTIGASFMTKTVQ", "note": "[N9L]", "protein stability index": 1.66}, {"variant": "FVEDSFDPGINPTIGASFMTKTVQ", "note": "[N9G]", "protein stability index": 2.78}, {"variant": "FVEDSFDPKINPTIGASFMTKTVQ", "note": "[N9K]", "protein stability index": 1.88}, {"variant": "FVEDSFDPAINPTIGASFMTKTVQ", "note": "[N9A]", "protein stability index": 2.25}, {"variant": "FVEDSFDPSINPTIGASFMTKTVQ", "note": "[N9S]", "protein stability index": 2.51}, {"variant": "FVEDSFDPFINPTIGASFMTKTVQ", "note": "[N9F]", "protein stability index": 1.92}, {"variant": "FVEDSFDPYINPTIGASFMTKTVQ", "note": "[N9Y]", "protein stability index": 1.72}, {"variant": "FVEDSFDPCINPTIGASFMTKTVQ", "note": "[N9C]", "protein stability index": 2.08}, {"variant": "FVEDSFDPWINPTIGASFMTKTVQ", "note": "[N9W]", "protein stability index": 2.65}, {"variant": "FVEDSFDPMINPTIGASFMTKTVQ", "note": "[N9M]", "protein stability index": 2.35}, {"variant": "FVEDSFDPIINPTIGASFMTKTVQ", "note": "[N9I]", "protein stability index": 2.23}, {"variant": "FVEDSFDPDINPTIGASFMTKTVQ", "note": "[N9D]", "protein stability index": 2.73}, {"variant": "FVEDSFDPHINPTIGASFMTKTVQ", "note": "[N9H]", "protein stability index": 2.22}, {"variant": "FVEDSFDPVINPTIGASFMTKTVQ", "note": "[N9V]", "protein stability index": 2.04}, {"variant": "FVEDSFDPPINPTIGASFMTKTVQ", "note": "[N9P]", "protein stability index": 2.49}, {"variant": "FVEDSFDPRINPTIGASFMTKTVQ", "note": "[N9R]", "protein stability index": 1.95}, {"variant": "FVEDSFDPQINPTIGASFMTKTVQ", "note": "[N9Q]", "protein stability index": 2.1}, {"variant": "FVEDSFDPTINPTIGASFMTKTVQ", "note": "[N9T]", "protein stability index": 2.26}, {"variant": "FVEDSFDPEINPTIGASFMTKTVQ", "note": "[N9E]", "protein stability index": 2.47}, {"variant": "FVEDSGDPNINPTIGASFMTKTVQ", "note": "[F6G]", "protein stability index": 3.27}, {"variant": "FVEDSYDPNINPTIGASFMTKTVQ", "note": "[F6Y]", "protein stability index": 2.02}, {"variant": "FVEDSMDPNINPTIGASFMTKTVQ", "note": "[F6M]", "protein stability index": 2.69}, {"variant": "FVEDSWDPNINPTIGASFMTKTVQ", "note": "[F6W]", "protein stability index": 1.76}, {"variant": "FVEDSLDPNINPTIGASFMTKTVQ", "note": "[F6L]", "protein stability index": 2.56}, {"variant": "FVEDSRDPNINPTIGASFMTKTVQ", "note": "[F6R]", "protein stability index": 2.36}, {"variant": "FVEDSEDPNINPTIGASFMTKTVQ", "note": "[F6E]", "protein stability index": 4.08}, {"variant": "FVEDSQDPNINPTIGASFMTKTVQ", "note": "[F6Q]", "protein stability index": 2.88}, {"variant": "FVEDSCDPNINPTIGASFMTKTVQ", "note": "[F6C]", "protein stability index": 2.67}, {"variant": "FVEDSIDPNINPTIGASFMTKTVQ", "note": "[F6I]", "protein stability index": 2.56}, {"variant": "FVEDSHDPNINPTIGASFMTKTVQ", "note": "[F6H]", "protein stability index": 2.58}, {"variant": "FVEDSADPNINPTIGASFMTKTVQ", "note": "[F6A]", "protein stability index": 2.83}, {"variant": "FVEDSTDPNINPTIGASFMTKTVQ", "note": "[F6T]", "protein stability index": 2.89}, {"variant": "FVEDSKDPNINPTIGASFMTKTVQ", "note": "[F6K]", "protein stability index": 2.71}, {"variant": "FVEDSDDPNINPTIGASFMTKTVQ", "note": "[F6D]", "protein stability index": 3.85}, {"variant": "FVEDSVDPNINPTIGASFMTKTVQ", "note": "[F6V]", "protein stability index": 3.31}, {"variant": "FVEDSNDPNINPTIGASFMTKTVQ", "note": "[F6N]", "protein stability index": 2.9}, {"variant": "FVEDSSDPNINPTIGASFMTKTVQ", "note": "[F6S]", "protein stability index": 2.99}, {"variant": "FVEDSPDPNINPTIGASFMTKTVQ", "note": "[F6P]", "protein stability index": 2.74}, {"variant": "FVEDVFDPNINPTIGASFMTKTVQ", "note": "[S5V]", "protein stability index": 1.89}, {"variant": "FVEDYFDPNINPTIGASFMTKTVQ", "note": "[S5Y]", "protein stability index": 1.98}, {"variant": "FVEDWFDPNINPTIGASFMTKTVQ", "note": "[S5W]", "protein stability index": 1.52}, {"variant": "FVEDTFDPNINPTIGASFMTKTVQ", "note": "[S5T]", "protein stability index": 2.34}, {"variant": "FVEDSFRPNINPTIGASFMTKTVQ", "note": "[D7R]", "protein stability index": 1.97}, {"variant": "FVEDSFEPNINPTIGASFMTKTVQ", "note": "[D7E]", "protein stability index": 2.36}, {"variant": "FVEDSFQPNINPTIGASFMTKTVQ", "note": "[D7Q]", "protein stability index": 1.98}, {"variant": "FVEDSFIPNINPTIGASFMTKTVQ", "note": "[D7I]", "protein stability index": 2}, {"variant": "FVEDSFCPNINPTIGASFMTKTVQ", "note": "[D7C]", "protein stability index": 1.98}, {"variant": "FVEDSFPPNINPTIGASFMTKTVQ", "note": "[D7P]", "protein stability index": 1.96}, {"variant": "FVEDSFLPNINPTIGASFMTKTVQ", "note": "[D7L]", "protein stability index": 2.15}, {"variant": "FVEDSFNPNINPTIGASFMTKTVQ", "note": "[D7N]", "protein stability index": 1.61}, {"variant": "FVEDSFFPNINPTIGASFMTKTVQ", "note": "[D7F]", "protein stability index": 2.75}, {"variant": "FVEDSFGPNINPTIGASFMTKTVQ", "note": "[D7G]", "protein stability index": 1.79}, {"variant": "FVEDSFSPNINPTIGASFMTKTVQ", "note": "[D7S]", "protein stability index": 1.92}, {"variant": "FVEDSFAPNINPTIGASFMTKTVQ", "note": "[D7A]", "protein stability index": 1.96}, {"variant": "FVEDSFMPNINPTIGASFMTKTVQ", "note": "[D7M]", "protein stability index": 2.33}, {"variant": "FVEDSFHPNINPTIGASFMTKTVQ", "note": "[D7H]", "protein stability index": 2}, {"variant": "FVEDSFTPNINPTIGASFMTKTVQ", "note": "[D7T]", "protein stability index": 2.15}, {"variant": "FVEDSFWPNINPTIGASFMTKTVQ", "note": "[D7W]", "protein stability index": 3.07}, {"variant": "FVEDSFVPNINPTIGASFMTKTVQ", "note": "[D7V]", "protein stability index": 1.94}, {"variant": "FVEDSFYPNINPTIGASFMTKTVQ", "note": "[D7Y]", "protein stability index": 1.67}, {"variant": "FVEDSFKPNINPTIGASFMTKTVQ", "note": "[D7K]", "protein stability index": 2.09}]}]}
